Results reported in the DeepSol protein solubility set.

Assay: soluble on expression in E. coli; label from the status in PepcDB or PDB records

Sequence | soluble on expression in E. coli
MGSDKIHHHHHHVEQTMFTNEVILSWLQYFSKNAPINLAKLKMLDITGKNKNLIPTVMSNRAVLVFTDAGHPDIFYDMWNAELGDCDIWYNEGSEPSGEIKHDKVSDMINRGINASAAMLILNPNAATNYHIGMENSRFSCGSVQYVCREVRAVIMNKLNLGDQDNICIISGESIAVEAAMIAAEGSVIAVEYDRRDRNTMQENVKKFDLNNVTIVESLENGIPDKLPVPDIAFIVGSPRIGSEIKALLSINPVMDFVIYTLDFEVLMSLPALFRENGLERTEAIHVAVSRVNSKKMVEPFPAPWLISGRSIKG | not soluble
MAHHHHHHMTGSTHNGGSRLIQYEDSSNKEFIRKYLVETRNEFIEKQMRALYECREIYKDDIDEVINILTYALENNDSVLLRHEVAYVIGQISNEKCNDILIKLLNDTEENLMVRHEAAEGLAAIGSDSNIEVIKKFLNDEKVEVRETCELALSSLLEKNKYAVCSCSNKDSIKEAIKKKRNDEFVSKKFNTIDPVVFTSSGNAKSVDALIEDLNNEAVPLKLRYEALFKLRDMETDVSINALGEVLIKDKKSAIFRHEVAFVLGQALHLNSLKYLISSLQNVGEHEMVRHEVALALGSLGSLNINSQEYKNVQSEIISTLKTFSKDACRVVAESCLVGLDYIAENLNMAIEVN | not soluble
MVTLSLPNMEGRREQLIAQVESILASAADGRVQKTKETQSVDFKEEAGRRNGPQIEPGKPENPEAADKLADEVACMANTPGGGALIVGIEDKTGRIIGTELDIDWLRQGIFTRIDVAPDVVAKRVLGQRVLAIYVAAAAEPIEDTSDRLRWRVGDSCRPVDRAEWWEYQRAQSGFDPMAQVTTATLGDARPAALALARKWDPAFAELTDEELLRGIGALDAEGFLSQAGKLLFTSLDRTAIELSIFDVHGGQVLNRVVPEPEKSCLEQLDYLEQALNVVNKNNTVVEGFVHKPVPEIPRLAVREAMLNAMIHRDWNRSEPIDVRWIELDSTLIVRSPGGFPAAITSENVLSNRAARYPALADLYRALGLVDKQGVGVDRMYQAMIALGHRPPTIEEIAGPFVETTLVGGRPVLPVLELVSSIVPEARQDDYRIAIVLYLLFQRPFITIDVVARGLQSGKEAARNALEAARQTTVAGAPLIIAHDGVWLLGNACREILRKVEPSPFSPVRYLSTDQAELTNAAMLWLSEVGDLATSDLMAMCGVSRGTAKACVDGLVDEERVVAVGGGRSRRYRLVELEHHHHHH | soluble
MSLATAPPFERIETTGLQTLTPRELDELIESVAAVDNPTPLVDDESFLRRVTLDAIGRVPTEQEWKTFMEDPASNKRAKLIDRLLASEEYGANWANYWSDVFSYRTPSPELTFLSYDTPKHWLAEQLNNGVGWDQVSYQMLTGVGKVADNPAAFYVGYHQADVSRLAGESTRIFLGAQIQCAECHDHPFVDIPQERFHQMAAFFVRTKAELPWNDEGHHHHHH | soluble
MSLTYEKIKQLRENREITQKEISNALDINVSVYNKIELGIRPLREEELTAIADFFNVSIDYLTGRTDNPTTPSNNQKEAGQNIISHFRLNTNDLSSDDIEELEKELIDFQEFLIKRAKERKEGGSHHHHHH | soluble
MGSSHHHHHHSSGLVPRGSHMTRSKVAIIGGGPAGSVAGLTLHKLGHDVTIYERSAFPRYRVGESLLPGTMSILNRLGLQEKIDAQNYVKKPSATFLWGQDQAPWTFSFAAPKVAPWVFDHAVQVKREEFDKLLLDEARSRGITVHEETPVTDVDLSDPDRVVLTVRRGGESVTVESDFVIDAGGSGGPISRKLGVRQYDEFYRNFAVWSYFKLKDPFEGDLKGTTYSITFEDGWVWMIPIKDDLYSVGLVVDRSKSAEVREQGADAFYSSTLAKCAKAMDILGGAEQVDEVRIVQDWSYDTEVFSADRFFLCGDAACFTDPLFSQGVHLASQSAVSAAAAIDRITRHGDEKDAVHAWYNRTYREAYEQYHQFLASFYTFASFTEPDSEFWRKRRITESDDDRLTRKKWFESLAGNGPEDPSGTVASFRDRASTMIAIGRHQRPELSDDFSEAELNPARVRWISDLTKRLNSITRFKWTGGKAVLKQHYRVEPIGFRLEQREVLANGEGLDMAQYPMDDEARQIFQDLAEEEFGYKTLVKRLGAVGRQELSTQIVVRLMEAGLLTGYDAQGEKVFVQGRLHFGGVGVEYEV | soluble
MKDSPFYQHYDLDLKDKPLGEGSFSICRKCVHKKSNQAFAVKIISKRMEANTQKEITALKLCEGHPNIVKLHEVFHDQLHTFLVMELLNGGELFERIKKKKHFSETEASYIMRKLVSAVSHMHDVGVVHRDLKPENLLFTDENDNLEIKIIDFGFARLKPPDNQPLKTPCFTLHYAAPELLNQNGYDESCDLWSLGVILYTMLSGQVPFQSHDRSLTCTSAVEIMKKIKKGDFSFEGEAWKNVSQEAKDLIQGLLTVDPNKRLKMSGLRYNEWLQDGSQLSSNPLMTPDILGSSGAAVHTCVKATFHAFNKYKREGFCLQNVDKA | soluble
MSSPKISIIIPVYMAESYLHRCVDSIITQTFTDWELLLVDDGSPDHSGELCEKYASAYKSRIKAFHKPNGGVASAREFGMQQARGEYSIHVDPDDWIDSNTLEELYQQAVKEQADMVICDFMMEYPNRQIHNCQKPQLLDSSSFMHQLLQQERHGSLCNKLIRTELYHKYQLHFPEKMICWEDLYICCSILLHGCKLAYVPHALYHYDFYTNDNSMVRHTDMRGLQAQIDFCRLMQAKISPEYLPELNELKGITLITAFRNQLLNEQAIRSLFPEINDWYVTRYGHDYEKSNYYGLTLVLRGYNFKTARRRMFVAKFLVQIKNKITRML | not soluble
MQDRSCYKLTQEGERLFRMQKYEKGIDLLKKALEVGTDDFSLLSAIYCQLGNAHTMLKDYEQALKFHTYDILVERLLGNKEGEAKSCANLGNIFKMKGAYNDALTFTFKQLDFAEELGDRVLKSRAYYNIATIYVERGRCTKLEAAEEKNDAKNAEATSDFENAAKYFMLNLEMSEKSEDALTMGRCYGSLGNTYYCLGDYDQSIHFHKLRLELSQQYGDRASMRRAHANIANCHALKSNMPLAIQHYKLAYNLAIEIGNKTEEAQMAYSLANALYIGKEVQKAITYFQRHLKIARSLEDISGQLRSYYSLALSFNNLCERRKALYFLVLAKRSSLQVNDTSALTDIDNLLNEILEAGQEDVLVDDIELIIDESADPAPADIEHRELRLTYFQKRNIHDKPVNTPEDPLAEDRYEKEEFFDMLAKLQSKRMNDQRVDASVLSSNLDFRVRQVDTEPDNSSTDGSEVLIDLLLNAQGRRMDDQRAPFLPGLNPNGQIILRRLNTDPGNEELDEHLVEWLMRVQGERLDEQRSELPPIKPEGQEEVDKKKEEDVTAIVMRMQAGRLEDQRAHLPNIPTSKN | not soluble
DRKQQERELTETNSVLSSVLDNMPVGILIEDADRTITTANKKLLDILDVSLTPSGLIGCEYAEIAETLKTQFADPDQFNETVNKIHSTRDAVFDEELLMADGRILARSYVSYSLPDGTGNIWLYRDIT | not soluble
SHLHPLHKNTTGYDLRHLFIGSEGTLGIITAATLKLFANPLDKATAWVGIPDIESAVRLLTETQAHFAERLCSFELIGRFAAELSSEFSKLPLPTHSEWHILLELTDSLPDSNLDDRLVEFLYKKGFTDSVLAQSEQERIHMWALRENISASQRKLGTSIKHDIAVPIGRVADFVRRCAKDLEQNFKGIQIVCFGHLGDGSLHYNTFLPEILSNEVYRYENDINSTVYRNVLACNGTIAAEHGIGIIKKQWLDKVRTPAEIALMKSIKQHLDPYNIMNPGKLLP | not soluble
GSMTDGDYDYLIKLLALGDSGVGKTTFLYRYTDNKFNPKFITTVGIDFREKRVVYDTQGADGASGKAFKVHLQLWDTAGLERFRSLTTAFFRDAMGFLLMFDLTSQQSFLNVRNWMSQLQANAYCENPDIVLIGNKADLPDQREVNERQARELAEKYGIPYFETSAATGQNVEKSVETLLDLIMKRMEKCVEKTQVPDTVNGGNSGKLDGEKPAEKKCAC | soluble
MSLSLRRIDHVSLRVRDVEEASRRWSAQFGLAVRERDGRRARLACDDEPYCLELLAAEAPGVEHVAYELRRSCTLEEAGRHFEGLGVPYEEHAGGLRVADPDGNRVLVLPYREPRERWVSHARAATDQIVGHPRRLGHVNFLTGRLSEGVEFYTRALGMRITDWLGEGGVWFHINADHHVMALVDKGYPHFHHLAFDVVDIGQMRVALDHLGRHGRWLGWGPVRHGIGGNIASYVRIVEEECFVELYCDMEQLEADHEVRRWPDNRFSSNTWGPLPPRSYFRFDEAAVASERESLEMLGHPLKEEVSSEGHHHHHH | soluble
MHHHHHHSSGRENLYFQGDPRRRNILRSLRRNTKKPKPKPRPSITKATWESNYFGVPLTTVVTPEKPIPIFIERCIEYIEATGLSTEGIYRVSGNKSEMESLQRQFDQDHNLDLAEKDFTVNTVAGAMKSFFSELPDPLVPYNMQIDLVEAHKINDREQKLHALKEVLKKFPKENHEVFKYVISHLNKVSHNNKVNLMTSENLSICFWPTLMRPDFSTMDALTATRTYQTIIELFIQQCPFFFYNR | soluble
MVHPAFQVFTDALRQRFGEALDAVVLYGSCLHTSDLTEGIADFYVLVSDYRLAYSGRLLAGLNAWLPPNVFYLEVPAAAGVMRAKYAVISTADFERGARQWFHPYIWARFAQPARLLYARDDQTGKRVHTAQASAVLKFISTTLPVLESGPSDLEMIWASGLMLTYAAELRAEREARARHLVRIDPEIYSRLTAAAMPALIPLLSLQADGRYHIGPITPLKRLSARIHWRLRRWQGRVLSVLRLSKATMTFRDCLDYAAWKIERHTGIKVEITPMLRRHPILWGYKVMWQLLRRGVLRLEHHHHHH | not soluble
GMNRGKALQLVKPHLTEHRYQHTIGVMETAIDLAKLYGADQQKAELAAIFHDYAKFRDKNEMRTLIREKLSQQDILFYGDELLHAPCGAYYVREEVGIEDEDVLQAIRFHTTGRPNMSLLEKIIFLADYIEPNRQFPGVEKVRTQAKTDLNGAIISSLVNTITFLLKKNQPIYPDTLATYNQLLLEQK | soluble
MEPIWRNYPYPTYPGHHNFQFDPLLSDGSHTGVNQLGGVFVNGRPLADTVRAQIVEMSQHGTRPCDISRQLKVSHGCVSKILGRYYSTGSVRPGVIGGSKPKVATPRVVECIAGYKRANPTMFAWEIRQKLIEDQICGEENVPSVSSINRIVRNKSFMAQLAAPTSVTSSAARPSSATSHHQRSPPRGVQQHMQQSTSVQQLQQLQLTSAATVNSLMTPPAFAMPGTAYSINGLLGTLPQPSLLDDKFTNLSTQSADMSLVYSTGLVGEHDWTMRTPMVILPQNYCGQL | not soluble
MGSDKIHHHHHHMDFWKCPHCGFVVSKTHQEMTQDQWSQLNSSWHHNFENNRESRTTNQPPYADQALVLAILKENDILDLDDGLDYAAGYGTFSKCLKKYFNIGIRIFDRYVHSSDEGMRYVAQKELSRYKLVINSAMFEHVLNRHALDEVNGLVKDDGVLMLHTVVCERIPKDPGWFYIDTMVHTALHTNKSMSILMDQWGYGASIYSPQAKSWFLFKRDNPLIDDLEAKVAGINHELQTTYLHYKRGFVDYWKGF | not soluble
PLIAVFIGSILFDYRLAQETADTAYDHSLNNAALDIAAYIQTVGLSPKLRLTPEAEAMLRHDAVDKIFFAVRDSNKQLLIGDAQLPAYPGAIHKRPVFIDDVYQGEKIRATTQLIMVDANEITITVAETMREREHASNRIL | not soluble
GPGSMTHNRSGAVRRKVVQHDFYDSADQVGGVVLLNNPTNGSWEYDEYLRLLTTKRYSRIPSWEAHSTAQCYFVCADGVYPKLQSYVKERQVSHPHLRLFQFFPLCDAVIGDMDSYVTSYEKDGCERPSSTPEGGYGTVDDIPVEVLDTIHHRCRSAAALFREVDGSVPDTPLNGWKMLHEEHSHPLLRPLWLHIQCQITTDFKKALTLLKRLRKRYPDENAVVLPPVLRSPGAARILETGGGVVDQRNCGCDNDPIQERELCVAASQVEALLLPTVVAVGAFGGRFDHEVGAISTMLSESHDAHIVLINLFNTVFACQGGGWTQIVRQPEYEDKTCGLVNYGRMTECETSGLLWNVVKGRGRPSVTNDFVFDFGAFISVCNIVRREVITVDLRCLLTSVGESPADATTATGASDCEAQRGRGPPVVFSILRRQKKEGG | not soluble
